Numbering of substitutions follows the chain as printed.
B1: LK-VRB-19s (ligand, human, UniProt P15692-4 27-135, looked up)
chain: APMAEGGGQNHHEVVKFEDVYRRSSCHPIETLVDIFQEYPDEIEYIFKPSCVPLMRCGGCCNSEMRECVPTEESNITMQIMRIKPHQGQHIGEMSFLQHNKCECRPKKD
notes: one of the two is probably misprinted
B2: LK-VRB-13s (ligand, human, UniProt P15692-4 27-135, looked up)
chain: B1 chain with R22Q
B3: LK-VRB-12s (ligand, human, UniProt P15692-4 27-135, looked up)
chain: B1 chain with S25Y
B4: LK-VRB-11s (ligand, human, UniProt P15692-4 27-135, looked up)
chain: B1 chain with Y21L, R22Q, S25Y
B5: LK-VRB-14s (ligand, human, UniProt P15692-4 27-135, looked up)
chain: B1 chain with E18M, Y21L, S25Y
B6: LK-VRB-16s (ligand, human, UniProt P15692-4 27-135, looked up)
chain: B1 chain with E18M
B7: LK-VRB-10s (ligand, human, UniProt P15692-4 27-135, looked up)
chain: B1 chain with E18M, R22Q
B8: LK-VRB-20s (ligand, human, UniProt P15692-4 27-135, looked up)
chain: B1 chain with E18M, Y21L
B9: LK-VRB-22s (ligand, human, UniProt P15692-4 27-135, looked up)
chain: B1 chain with Y21L, S63D, R66L
B10: LK-VRB-24s (ligand, human, UniProt P15692-4 27-135, looked up)
chain: B1 chain with Y21L, R66L
B11: LK-VRB-17s (ligand, human, UniProt P15692-4 27-135, looked up)
chain: B1 chain with Y21L, S25Y
B12: LK-VRB-26s (ligand, human, UniProt P15692-4 27-135, looked up)
chain: B1 chain with Y21L, S63D
B13: LK-VRB-21s (ligand, human, UniProt P15692-4 27-135, looked up)
chain: B1 chain with Y21L, M65G, R66L
B14: LK-VRB-25s (ligand, human, UniProt P15692-4 27-135, looked up)
chain: B1 chain with Y21L, M65G
B15: LK-VRB-15s (ligand, human, UniProt P15692-4 27-135, looked up)
chain: B1 chain with E18M, Y21L, R22Q
B16: LK-VRB-23s (ligand, human, UniProt P15692-4 27-135, looked up)
chain: B1 chain with Y21L, S63D, M65G
B17: native VEGF (1-109) (ligand, human, UniProt P15692 207-315, looked up)
chain: B1 chain with E18M, R22Q, S25Y, S63D, M65G, R66L
modifications: 125I-labeled where used as tracer
B18: Gly 65** (ligand)
chain: B1 chain with E18M, R22Q, S25Y, S63D, M65A, R66L
B19: Arg 105 (ligand)
chain: B1 chain with E18M, R22Q, S25Y, S63D, M65G, R66L, R105A
B20: Ile 46* (ligand)
chain: B1 chain with E18M, R22Q, S25Y, I46A, S63D, M65G, R66L
B21: Ile 43* (ligand)
chain: B1 chain with E18M, R22Q, S25Y, I43A, S63D, M65G, R66L
B22: Met 81** (ligand)
chain: B1 chain with E18M, R22Q, S25Y, S63D, M65G, R66L, M81A
B23: Gln 22** (ligand)
chain: B1 chain with E18M, R22A, S25Y, S63D, M65G, R66L
B24: His 86** (ligand)
chain: B1 chain with E18M, R22Q, S25Y, S63D, M65G, R66L, H86A
B25: Leu 66** (ligand)
chain: B1 chain with E18M, R22Q, S25Y, S63D, M65G, R66A
B26: Glu 103 (ligand)
chain: B1 chain with E18M, R22Q, S25Y, S63D, M65G, R66L, E103A
B27: Gln 79* (ligand)
chain: B1 chain with E18M, R22Q, S25Y, S63D, M65G, R66L, Q79A
B28: Gln 89 (ligand)
chain: B1 chain with E18M, R22Q, S25Y, S63D, M65G, R66L, Q89A
B29: Glu 64* (ligand)
chain: B1 chain with E18M, R22Q, S25Y, S63D, E64A, M65G, R66L
B30: Ile 91 (ligand)
chain: B1 chain with E18M, R22Q, S25Y, S63D, M65G, R66L, I91A
B31: Lys 101 (ligand)
chain: B1 chain with E18M, R22Q, S25Y, S63D, M65G, R66L, K101A
B32: Lys 16 (ligand)
chain: B1 chain with K16A, E18M, R22Q, S25Y, S63D, M65G, R66L
B33: Asp 63** (ligand)
chain: B1 chain with E18M, R22Q, S25Y, S63A, M65G, R66L
B34: Lys 48** (ligand)
chain: B1 chain with E18M, R22Q, S25Y, K48A, S63D, M65G, R66L
B35: Met 18** (ligand)
chain: B1 chain with E18A, R22Q, S25Y, S63D, M65G, R66L
B36: Ile 83* (ligand)
chain: B1 chain with E18M, R22Q, S25Y, S63D, M65G, R66L, I83A
B37: Phe 47** (ligand)
chain: B1 chain with E18M, R22Q, S25Y, F47A, S63D, M65G, R66L
B38: Phe 17* (ligand)
chain: B1 chain with F17A, E18M, R22Q, S25Y, S63D, M65G, R66L

What follows are binders tested against T1, KDR (1-3) monomer (UniProt P35968 20-327, limits assumed, biotin-labeled in the ELISA of Example 8) (assay: competition ELISA vs biotinylated VEGF (8-109), soluble KDR (1-3) captured by MAKD5).
T1 construct: domain: domains 1 to 3; Genentech reagent; also called domains 1 to 3 of KDR
T1 sequence (P35968 20-327 limits assumed): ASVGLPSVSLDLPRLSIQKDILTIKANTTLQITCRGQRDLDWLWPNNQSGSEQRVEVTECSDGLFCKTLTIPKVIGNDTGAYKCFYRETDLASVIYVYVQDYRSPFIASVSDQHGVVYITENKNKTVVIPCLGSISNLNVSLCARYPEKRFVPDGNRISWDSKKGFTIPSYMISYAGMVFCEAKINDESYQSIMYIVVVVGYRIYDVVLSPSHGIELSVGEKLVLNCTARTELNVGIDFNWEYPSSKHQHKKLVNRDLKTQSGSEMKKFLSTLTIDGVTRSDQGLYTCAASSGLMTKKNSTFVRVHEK
Method: Receptor binding assays were performed in 96-well immunoplates (Maxisorp, Nunc-Immunoplate, Nalge Nunc International, Rochester, N.Y.). Each well was coated with 100 μl of a solution containing 8 μg/ml of a monoclonal antibody to KDR known as MAKD5 (Genentech, South San Francisco, Calif.) in 50 mM carbonate buffer at pH 9.6 and incubated at 4° C. overnight. The supernatant was discarded, the wells were washed three times in washing buffer (0.05% Tween 20 in PBS), and the plate was blocked (150 μl per well) with block buffer (0.5% BSA, 0.01% thimerosal in PBS) at room temperature for one hour. The supernatant was discarded, and the wells were washed.
Aliquots of this mixture (100 μl) were added to the precoated microtiter wells and the plate was incubated for 1 hour at room temperature. […] The wells were then incubated with 3,3′, 5,5′-tetramethyl benzidine (0.2 gram/liter; Kirkegaard & Perry Laboratories, Gaithersburg, Md.) for about 10 minutes at room temperature. Absorbance was read at 450 nm on a Vmax plate reader (Molecular Devices, Menlo Park, Calif.).
Titration curves were fit with a four-parameter nonlinear regression curve-fitting program (KaleidaGraph, Synergy Software, Reading, Pa.).

Row | IC50 [nM] | Relative Binding Affinity (ratio to native VEGF (8-109)) [fold] | Binder
1 | 7 | 7 | B1
2 | 14 | 14 | B2
3 | 0.4 | 0.4 | B3
4 | 2 | 2 | B4
5 | 0.5 | 0.5 | B5
6 | 0.6 | 0.6 | B6
7 | 0.5 | 0.5 | B7
8 | 2 | 2 | B8
9 | 4 | 4 | B9
10 | 10 | 10 | B10
11 | 3 | 3 | B11
12 | 23 | 23 | B12
13 | 3 | 3 | B13
14 | 4 | 4 | B14
15 | 2 | 2 | B15
16 | 11 | 11 | B16

What follows are binders tested against T1, KDR (1-3) monomer (assay: competition ELISA: plate coated with VEGF (8-109), 100 pM biotin-labeled KDR(1-3), serial dilutions of the competing VEGF (Example 8)).
Method: (§1) After 1 hour, the plates were washed, and the bound protein stained with streptavidin horseradish peroxidase conjugate (Pharmacia) and assayed. Affinities were estimated as IC₅₀ values: the concentration of KDR(1-3) or Flt(1-3) that blocked 50% of protein binding.

Row | IC50 [nM] | fold reduction in binding (IC50 variant / IC50 VEGF(1-109)) [fold] | Binder
17 | 10 | – | B17
18 | – | 1 | B18
19 | – | 1 | B19
20 | – | 96 | B20
21 | – | 21 | B21
22 | – | 9 | B22
23 | – | 6 | B23
24 | – | 2 | B24
25 | – | 1 | B25
26 | – | 1 | B26
27 | – | 55 | B27
28 | – | 1 | B28
29 | – | 10 | B29
30 | – | 1 | B30
31 | – | 1 | B31
32 | – | 1 | B32
33 | – | 1 | B33
34 | – | 1 | B34
35 | – | 5 | B35
36 | – | 89 | B36
37 | – | 5 | B37
38 | – | 45 | B38

Each binder was assayed against T2, Flt-1 (1-3) monomer (UniProt P17948 27-331, limits assumed, biotin-labeled in the ELISA of Example 8) (assay: competition ELISA: plate coated with VEGF (8-109), 100 pM biotin-labeled Flt1(1-3), serial dilutions of the competing VEGF (Example 8)).
T2 construct: domain: domains 1 to 3; Genentech reagent; also called Flt(1-3); domains 1 to 3 of Flt-1
T2 sequence (P17948 27-331 limits assumed): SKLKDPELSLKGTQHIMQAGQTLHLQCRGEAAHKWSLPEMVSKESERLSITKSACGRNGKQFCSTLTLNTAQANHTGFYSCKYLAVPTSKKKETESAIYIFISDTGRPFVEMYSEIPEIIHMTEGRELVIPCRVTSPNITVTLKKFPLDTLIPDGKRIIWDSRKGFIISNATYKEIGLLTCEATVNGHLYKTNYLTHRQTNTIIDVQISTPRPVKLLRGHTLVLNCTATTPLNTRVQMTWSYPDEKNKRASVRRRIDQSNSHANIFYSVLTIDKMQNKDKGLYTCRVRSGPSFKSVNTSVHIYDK
Method: as §1

Row | IC50 [nM] | fold reduction in binding (IC50 variant / IC50 VEGF(1-109)) [fold] | Binder
39 | 6 | – | B17
40 | – | 1 | B18
41 | – | 1 | B19
42 | – | 4 | B20
43 | – | 3 | B21
44 | – | 5 | B22
45 | – | 15 | B23
46 | – | 1 | B24
47 | – | 10 | B25
48 | – | 1 | B26
49 | – | 3 | B27
50 | – | 1 | B28
51 | – | 5 | B29
52 | – | 1 | B30
53 | – | 1 | B31
54 | – | 1 | B32
55 | – | 8 | B33
56 | – | 1 | B34
57 | – | 9 | B35
58 | – | 7 | B36
59 | – | 3 | B37
60 | – | 34 | B38

From patent US20060269997A1 (Genentech, published 2006)
